In the supplement of paper PMC12636428:

Tested on: Saccharomyces cerevisiae
Test: transcriptional activation domain activity (GFP:mCherry ratio, weighted mean of sorted bins, harmonized to initial dataset scale) (arbitrary fluorescence ratio units); higher = stronger transcriptional activation
Details: beta-estradiol 1 µM; induction time 4 h
Summary of the method: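 Barcoded tiles were sequenced after cells were sorted into 8 bins by GFP:mCherry ratio. Before sorting, cultures had been diluted 1:5 into SC with 1 uM beta-estradiol and held for 4 hours at 30 °C. The tiles were fused to an estradiol-inducible synthetic transcription factor and integrated at URA3 in yeast diploids carrying a GFP reporter. Activation activity is the read-weighted mean of bin median fluorescence, averaged over barcodes and linearly mapped onto the initial dataset scale, and tiles under 50 reads were left out.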

Sequence	transcriptional activation domain activity
TLKALCRFITWLSIEHIMGANLIYKLKAWLKMYRNLVIQCYIEIANLDIPTSV	56900
MLFGRSFMGTYFISGKHVFFFFLVFFNSLFLFYLLTSTFISICITGSLFFFVL	30400
MQFDIGPFVFFGLGWLSAIYLLLFPFFFFFFRLFPSLEFWLDLALIFMFRVLH	46300
EDEEDLSSKPRCQRCRKSKKGCDRQRPCQRCKDAGLSADQCVSEDEGNGRKGR	15700
MFAHFFFLRACCCPLPFFFCGYVFLIFSSPFSCFCFLCFWFCCFFFSVCFLLF	58700
AGQVVQETVHRAGDALKETAESAAQHVFSPRRRRRRRRSSRTGSERAVVCCSR	62000
DSEEERMRRRRAKSRDPERERERKASRSPEKKPARSKSRLGRLAAGAAAAGAA	50300
MKACLRCLVFLLGCTSPWCFTRYLALEHFTLFWIDADLWWQVYRFSILVLLSY	44400
ALILIFSQLTFTPYALESRNLHVAVRIFRVLIDLLEQAKSGKIRLTILQFLMR	71100
VLLVLPLFFSFSLYHPLRLHPFRLFFFFFFFFLCIFFYFSPFPSFSCHFLFSS	59100
LFLLFTFPLLGIFDTCFLTSMLFMALCFLFILLLETSFFFFFSLHPNFISWPY	62600
MLHAGVSNKIAKGWPKEGSCDRASFVHEGVLMMCQRSLVTFIVRSLLLMCYYF	36800
NNNYNNVSGKNNNNNNITNNSNNNHNNNNNDNNNNNNNNNNNNNNNNNSGNSS	49500
KTIWRDVKEGGECSVEEMCLSYYRSEGWKGYHSEGGILKTLFAYLFYDIMFLY	65700
APPEGGDKSESKEPPKKEESAPTEAKPAEPKEENKPEAKQASNKETKPESSKP	23300
SDVLFVSLNLLYFWCYLIPLLATIWIRLGNADSTINDRLSVHFYSVAFLLLLF	32800
MAYLFLYFTIFFIFFFIAGDGGDDCEIFFLFFFFSFKALFTPFFYLYLYWTSA	25400
GAQKPFDLTHWNITEYDCQGFDGYHEMSFFVLASHLYYRSLRSIPSLVRLWWI	75200
NTWLQQLQDELNGSYSLTDNVNTPIDPSLSDLGVTSASPLAGNSPGLPPEEVR	92100
TLYWSYGMYIMYNGPHWLNTSYYWIDYPHILISRQTKTYYLMQLAFWVQQVYT	41600
DLEELRHLCHALKATFTHVLSIPVCSYFYFPQTSFAMILHSIMIICRWVKLST	35100
HFNSVTTTYFKDGQSFYDILKCILPCIVDFLPKNSILVHCICAYLHFRILVGL	53500
MLQLWWLCVVFCVICFLCEWFRLGVVPPFLAATTLLQLFYFFYLLTFFCRVCA	50700
EWNRSVNSTYPLLYRGVDFLQKSLSWLKILRLSYLHPLQFFGCFGFGLLVVHI	60200
LNVLLGFLLLCFPNLERMVLNFGTVIAGPNHPGTLRKGYCEHCKLGVNVLEFD	62000

Sequence	transcriptional activation domain activity
ENVRGIMTENIERVLERGERIDLLVDKTGRLNVNAGEFRRRSRGLRRRMWWKN	37700
RKEAMDFDAELKRRNTHLYCAIIDLEKEMQLVAYLVCACLKKVTFLHKVCVLE	67900
RASHNASGFPNFLDTSCSSSFDDHFIFTNNLPFLNNNSINNNHSHNSSHNNNS	56800
MQMKMSESMSILILMLIMLELGWDVVDPCFFFTPFTPFPILPSFLPSFFFLFL	54500
NKDGNGDGGEGKDKDEENRSGNRDGKRERGRKEDRERVAGSSGGGAKGLKRKR	42600
MAGAVPVLMLILLLLSHLCTAFKFYSESGFALVRKILLTALPTFEPHHYQMDG	71600
IFNPLNWVFVQSSKVFPVDYILALLLVFDFFISSVVGIAFIGIRFLWVTLFRL	71500
KLLLVHGRWSYQRIADMHANFFYKNVIWTFGLFWYMPFNGFDATYLYHYTFIL	58100
MGGVFWKWKRGVWMVRFFRVFLQIFLADIGLILLVFWHYIVCLCYFLFFLVGI	52500
RVLNLTIHCAIWVRLYASLAWQKFADTLVHLELQFFTSSVLRAIPQNVCCRHL	38100
APQGEEKAPAPRRSKRAKTAAPSDQETEETATKVVAGKAGAGKGKAVAAKAAA	51800
WRKQWLVPLLIRYFNQMVLTLIRWFPLRCLYYTLIKGQAYEGLNKEYDADGIH	58300
DEEDIWNYLPSSSSQQEDSSRALKKNTNSEKANIQAKNDETYLFLQDQDESAD	46700
TARVSEAKPARGRPSSAKAESPAVEAAPAVKKRGRGRPSKTKPETEEEEEAVP	39600
MLETRFINNLVPLYRFLLPFYIFFFFSIYCYYLTIDPHYFSLSSMVFFFSCCT	57600
FVEKGRERERGKGRRGGGGGAGEEQREGGGGGRGGGRGKTVVVVVRDVASSGD	25100
MVMMIVCVCVLPCFVYVLWFLCRFFIYLFYYCVHAWPRWHREGGLFSLFFFFF	30000
AFLLFLIYLTLFCWVCFATSSTWVWSEILSDGQYTESFMPVNYVLLAVLSGII	49600
RSKAKDDDRSSDESDSKSSKSNKSKRSKHNNDSDSENGSSDEDRGSKRRKKSK	23000
MLFYFYFYFYFYAFSIFSFYVIFYFLYFFFLFRPGLLYLLLLFFSILFVLFLP	64900
NLFGWVRYAGVSVDHLKVHIVGAELWNRYKYAAGIWGYRALPIIALMASLIAC	54200
MAGDDEEGRDADGEPDNAATPAKRQRVSRACDQCRAARERCDGKPQCHPCVSQ	34100
EKAKPAEEPKPAAEPAPAEEKAAEPETQPESKPAEELSSPTEEPAPIEEAKPA	15800
GHSIPRLNFGDGYNLNNGRAYRGGTWASTLRYRKSNGLWYWIGCVNFWHTWIF	75000
HSLSTIGIDVSHWEPFPLASMQRALAYELHMFCPTLRTVIVWLRRYRYMWRWS	45200

Sequence	transcriptional activation domain activity
FCHIALFPSIGLKDTNYIPRAMDGVRFAHLESLHLQFNMYWLGPMYAWALHIL	52500
PATTSPAPRGLTASGQPRKKPGPKPKLKDPNAPEPEKKARKARKVVEAKDPAV	< 6570
PAPKKAPAKPRGRKPKPTADSDNQEVEAEAKPKSARGKKRTVAEKAAEEGAQP	< 6570
MLPTLRMLLGLICIAFLNRHCYGYSSRQMPMFAEAACFRIAHVLSPASAVYYP	59700
FISKLCILGGSQICNHFWGGIEIILESFYFILTTLINFWDFINLPNAFLWGLF	72800
QPIASCVVKVNFGMISNDSNFCGLVSGIIYVYMGLGGAFMLLVAVCVIKVRYT	67700
YCLLYWVWWFLAFSCWVFCLIYIFAIHCLIWVLVWLSVCFLLMGGYLFFCKED	30600
AKKESKADGEEKPKAARGKKRKVDEEAEEEEGAEKPASKKAKPVSKAKSAAGS	17000
QTPTDPESYWSDNRCKHSDCQELSPFASVFDLIDHYDHTHAFIPETLVKYSYI	17600
TETELYIPEFKLDPVNGYWFPHFVKYIIVALMMGLYILIVFWTLMIFKVVYKL	43100
MVVILYFFFYIFIKNRLGLVRVIFLFLVYHIQLLVLFFFGPFLPLVLLLLLLL	35900
EKKAPGRRGRPPKAAAAKKAKEAAAPGEEGAKPKRPVGRPRKGTTETAEKKGA	22300
ALNWYFLGTTMYFLYGESVIYYFKHILLVDRIFLPLATHHRFISFMLYILGFV	66300
MRVCVTSLFFFPLSFFPILIKLFLLSHHLFPTSNPFSFVFSSFAPFLPAFSFI	40900
NPLIIYSSQYSVWTMSFSLFFCVFWFLMAGCNFVRPSALHRVYSLIWMFILGW	51800
MVQCAVAECAEEGQSQCGRCKQRFYCSAECQQKDWAAHKKACKKPTATAGPAP	39500
GSTPGKTASTGRGTAGGKGVAAGSKAPASTRGGGGGTAGGGGKAGGANTKTAV	56000
MFLFLFLFVFLFVFLFLFLFLFLFLFLFLFMFPFLFPFLFPFPFPFPFPVLVL	52700
HLLDTNCLLLILKMFGLQEVTNSVVSKVDSPENNFFRYCLMNYSKNPQPMRPE	39100
LFLSLSSACPSFFPLLPFPFLLAFLITFLAPFPSFLSLLVPHSVPIPLSLPTS	49800
LQKYTQLSLLAKPLINLSNHSIQYQTLQSWYFKTLQSLEANRFRNFMLCHRIL	62300
MSNWLWIFLLLFFAFFCRSFTSCFIRLSVHIYTHCCMCSLGGLLVYLARSLFF	44200
FLDRGRVGFFFFFLLVSFYSSSWKLLFLLYTHFFVFSGLLALYYFLFWSVLFI	68800
RGLKNVVVLPAVGERSLASCLAGGDLDGYVIRVLRMLVWFIAFSRDTYDIYIG	69600
